To fix the notation:
B1: N‐TIMP3 (13.9 kDa N‐domain; aa 1‐120) (domain or fragment)
chain: CTCSPSHPQDAFCNSDIVIRAKVVGKKLVKEGPFGTLVYTIKQMKMYRGFTKMPHVQYIHTEASESLCGLKLEVNKYQYLLTGRVYDGKMYTGLCNFVERWDQLTLSQRKGLNYRYHLGC
B2: N‐Fc (N‐TIMP3 fused with Fc) (Fc fusion)
chain: B1 chain
B3: N‐PEG (PEGylated N‐TIMP3) (domain or fragment)
chain: B1 chain
modifications: PEG, size and site not stated
B4: N‐HSA (N‐TIMP3 fused with human serum albumin) (protein)
chain: B1 chain
B5: Wild‐type TIMP3 (Tissue Inhibitor of Metalloproteinase 3) (natural protein)
chain: CTCSPSHPQDAFCNSDIVIRAKVVGKKLVKEGPFGTLVYTIKQMKMYRGFTKMPHVQYIHTEASESLCGLKLEVNKYQYLLTGRVYDGKMYTGLCNFVERWDQLTLSQRKGLNYRYHLGCNCKIKSCYYLPCFVTSKNECLWTDMLSNFGYPGYQSKHYACIRQKGGYCSWYRGWAPPDKSIINATDP
modifications: endogenous glycosylation site at Asn184
B6: v2‐HSA (TIMP3v2 fused with human serum albumin) (protein)
chain: B5 chain with K22S, F34N
modifications: additional glycosylation site (F34N)
B7: v2‐PEG (TIMP3v2 PEGylated with 20 kDa polyethylene glycol) (natural protein)
chain: B5 chain with K22S, F34N
modifications: 20 kDa polyethylene glycol (PEG), site not stated; additional glycosylation site (F34N)
B8: v82‐Fc (v82 with Fc fused in the C‐terminus) (Fc fusion)
chain: B5 chain with H55N, Q57T, K71N, E73T, D87N, K89T, R115T
modifications: additional glycosylation sites
B9: TIMP3v82 (H55N/Q57T/K71N/E73T/D87N/K89T/R115T) (natural protein)
chain: B5 chain with H55N, Q57T, K71N, E73T, D87N, K89T, R115T
modifications: additional glycosylation sites, site‐specific glycosylation confirmed by mass spec analysis (data not shown); endogenous glycosylation site at Asn184
B10: TIMP3v2 (K22S/F34N TIMP3) (natural protein)
chain: B5 chain with K22S, F34N
modifications: additional glycosylation site (F34N), >95% occupancy by mass spectrometry; endogenous glycosylation site at Asn184
B11: WT‐HSA (wild‐type TIMP3 fused with human serum albumin) (protein)
chain: B5 chain
B12: v82‐HSA (TIMP3v82 fused with human serum albumin) (protein)
chain: B5 chain with H55N, Q57T, K71N, E73T, D87N, K89T, R115T
modifications: additional glycosylation sites
B13: v2‐Fc (TIMP3v2 fused with Fc) (Fc fusion)
chain: B5 chain with K22S, F34N
modifications: additional glycosylation site (F34N)

Where a chain is given by its changes, count along the chain named. Names may count otherwise.

recombinant rat MMP2 (pro‐MMP2 activated with APMA) (rat), sequence (P33436 110-662): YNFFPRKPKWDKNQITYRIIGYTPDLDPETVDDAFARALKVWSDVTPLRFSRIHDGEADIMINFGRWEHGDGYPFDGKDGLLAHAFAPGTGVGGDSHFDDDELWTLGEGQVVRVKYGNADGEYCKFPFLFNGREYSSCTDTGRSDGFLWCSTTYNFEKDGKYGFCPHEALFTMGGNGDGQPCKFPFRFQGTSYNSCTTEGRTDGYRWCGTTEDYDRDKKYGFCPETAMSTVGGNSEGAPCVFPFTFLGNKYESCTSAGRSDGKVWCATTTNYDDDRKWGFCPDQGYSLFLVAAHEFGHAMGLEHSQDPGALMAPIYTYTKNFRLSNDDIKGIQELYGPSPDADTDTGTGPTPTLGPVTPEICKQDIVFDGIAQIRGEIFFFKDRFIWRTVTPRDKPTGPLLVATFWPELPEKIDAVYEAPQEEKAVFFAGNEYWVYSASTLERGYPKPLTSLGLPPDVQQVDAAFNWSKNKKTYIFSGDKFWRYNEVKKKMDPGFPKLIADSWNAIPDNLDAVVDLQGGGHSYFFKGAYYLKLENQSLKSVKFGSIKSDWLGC

The target of the first experiment is catalytic domain of human MMP9 (human).
catalytic domain of human MMP9 (human), sequence (P14780 20-707): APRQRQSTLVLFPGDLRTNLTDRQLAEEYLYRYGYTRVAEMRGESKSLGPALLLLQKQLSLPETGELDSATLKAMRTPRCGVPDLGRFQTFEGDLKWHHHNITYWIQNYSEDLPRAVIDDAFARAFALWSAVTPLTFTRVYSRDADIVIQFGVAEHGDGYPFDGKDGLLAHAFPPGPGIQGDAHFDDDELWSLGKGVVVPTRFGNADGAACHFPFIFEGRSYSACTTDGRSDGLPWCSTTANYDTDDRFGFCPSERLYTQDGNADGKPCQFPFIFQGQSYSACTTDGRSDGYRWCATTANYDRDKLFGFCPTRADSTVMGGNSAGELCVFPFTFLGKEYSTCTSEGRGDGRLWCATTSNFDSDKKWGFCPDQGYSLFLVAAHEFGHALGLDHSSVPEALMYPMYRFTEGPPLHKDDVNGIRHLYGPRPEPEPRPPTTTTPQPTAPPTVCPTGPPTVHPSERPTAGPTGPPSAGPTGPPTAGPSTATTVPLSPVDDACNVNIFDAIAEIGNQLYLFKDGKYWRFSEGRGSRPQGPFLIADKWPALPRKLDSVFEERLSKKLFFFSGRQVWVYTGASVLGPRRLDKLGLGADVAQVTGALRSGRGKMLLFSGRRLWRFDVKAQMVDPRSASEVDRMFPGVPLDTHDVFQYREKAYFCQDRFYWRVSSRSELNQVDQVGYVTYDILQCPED
B1: the IC50 of inhibition of human MMP9 activity (cleavage of 5-FAM/QXL 520 FRET peptide, 37°C) is 1.5 nM.
Regarding B2, the IC50 of inhibition of human MMP9 activity (cleavage of 5-FAM/QXL 520 FRET peptide, 37°C) is 1.6 nM.
For the molecule B3, the IC50 of inhibition of human MMP9 activity (cleavage of 5-FAM/QXL 520 FRET peptide, 37°C) is 0.7 nM.
Still for that read-out and setting: the value for B4 was 1.1 nM.
On the same count and under the same terms, then B5, with 0.9 nM; and B6, with 16 nM; and B7, with 9 nM.
Consider B8, for which the IC50 of inhibition of human MMP9 activity (cleavage of 5-FAM/QXL 520 FRET peptide, 37°C) was found to be 10.5 nM.
The molecule B9 returned an IC50 of inhibition of human MMP9 activity (cleavage of 5-FAM/QXL 520 FRET peptide, 37°C) of 2.3 nM.
With B10, the IC50 of inhibition of human MMP9 activity (cleavage of 5-FAM/QXL 520 FRET peptide, 37°C) was 6.9 nM.
Consider B11, for which the IC50 of inhibition of human MMP9 activity (cleavage of 5-FAM/QXL 520 FRET peptide, 37°C) came to 0.6 nM.
As for B12, the IC50 of inhibition of human MMP9 activity (cleavage of 5-FAM/QXL 520 FRET peptide, 37°C) turned out to be 7.4 nM.
For the molecule B13, the IC50 of inhibition of human MMP9 activity (cleavage of 5-FAM/QXL 520 FRET peptide, 37°C) was found to be 10 nM.

The target of another experiment is human recombinant TACE (TNFα converting enzyme) (human) (UniProt P78536).
UniProt P78536, sequence (P78536 18-824): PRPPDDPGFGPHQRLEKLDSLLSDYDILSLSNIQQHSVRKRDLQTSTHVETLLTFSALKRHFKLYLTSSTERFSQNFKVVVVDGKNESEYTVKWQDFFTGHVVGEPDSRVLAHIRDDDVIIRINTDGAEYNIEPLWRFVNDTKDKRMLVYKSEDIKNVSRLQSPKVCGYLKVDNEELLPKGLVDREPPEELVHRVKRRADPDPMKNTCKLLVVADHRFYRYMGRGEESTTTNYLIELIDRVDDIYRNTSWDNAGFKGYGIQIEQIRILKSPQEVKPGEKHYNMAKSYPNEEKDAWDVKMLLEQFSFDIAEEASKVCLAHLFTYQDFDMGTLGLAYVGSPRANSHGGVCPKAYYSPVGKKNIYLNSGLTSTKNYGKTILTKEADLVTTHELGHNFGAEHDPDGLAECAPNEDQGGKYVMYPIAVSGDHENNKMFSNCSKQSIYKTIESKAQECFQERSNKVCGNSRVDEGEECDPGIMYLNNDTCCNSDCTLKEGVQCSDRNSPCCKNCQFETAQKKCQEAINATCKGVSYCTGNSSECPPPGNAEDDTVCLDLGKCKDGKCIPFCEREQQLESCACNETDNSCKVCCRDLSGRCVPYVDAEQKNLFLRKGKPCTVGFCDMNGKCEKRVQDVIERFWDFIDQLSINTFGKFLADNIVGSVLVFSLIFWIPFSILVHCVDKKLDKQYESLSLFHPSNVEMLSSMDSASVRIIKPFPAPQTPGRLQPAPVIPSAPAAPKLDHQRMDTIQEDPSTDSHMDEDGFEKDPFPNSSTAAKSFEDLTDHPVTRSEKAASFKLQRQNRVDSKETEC
Regarding B1, the IC50 of inhibition of human TACE activity (SensoLyte 520 TACE fluorimetric kit) came out at 59 nM.
As for B3, the IC50 of inhibition of human TACE activity (SensoLyte 520 TACE fluorimetric kit) was 197 nM.
The same measure, in the same setting: the value for B4 was 195 nM; that for B5 was 59 nM.
Consider B6, for which the IC50 of inhibition of human TACE activity (SensoLyte 520 TACE fluorimetric kit) amounted to 6800 nM.
Turning to B7, the IC50 of inhibition of human TACE activity (SensoLyte 520 TACE fluorimetric kit) is 123 nM.
In the case of B8, the IC50 of inhibition of human TACE activity (SensoLyte 520 TACE fluorimetric kit) is 156 nM.
Same read-out and setting: then B9, with 29 nM; and B10, with 341 nM; and B11, with 12.1 nM.
In the case of B12, the IC50 of inhibition of human TACE activity (SensoLyte 520 TACE fluorimetric kit) turned out to be 145 nM.
Same read-out and setting: the value for B13 was 618 nM.

The next experiment deals with recombinant rat MMP9 (rat pro‐MMP9) (rat) (UniProt P50282).
UniProt P50282, sequence (P50282 20-708): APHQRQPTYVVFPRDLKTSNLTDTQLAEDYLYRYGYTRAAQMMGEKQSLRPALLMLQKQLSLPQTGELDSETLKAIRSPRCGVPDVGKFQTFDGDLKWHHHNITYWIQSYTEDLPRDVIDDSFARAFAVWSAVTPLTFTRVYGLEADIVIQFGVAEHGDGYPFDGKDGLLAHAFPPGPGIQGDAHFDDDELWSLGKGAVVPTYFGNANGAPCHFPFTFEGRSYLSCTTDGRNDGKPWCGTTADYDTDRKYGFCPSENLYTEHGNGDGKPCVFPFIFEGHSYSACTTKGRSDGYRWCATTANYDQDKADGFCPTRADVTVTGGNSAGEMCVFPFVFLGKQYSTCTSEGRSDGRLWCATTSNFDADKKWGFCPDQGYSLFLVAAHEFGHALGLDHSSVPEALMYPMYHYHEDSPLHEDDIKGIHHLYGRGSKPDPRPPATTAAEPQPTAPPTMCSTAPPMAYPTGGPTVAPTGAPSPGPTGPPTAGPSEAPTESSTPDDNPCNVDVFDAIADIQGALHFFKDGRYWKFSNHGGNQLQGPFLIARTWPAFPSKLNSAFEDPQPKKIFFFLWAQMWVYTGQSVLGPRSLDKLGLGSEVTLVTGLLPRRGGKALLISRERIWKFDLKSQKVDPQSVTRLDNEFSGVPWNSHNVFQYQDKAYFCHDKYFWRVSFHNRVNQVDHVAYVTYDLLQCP
For the molecule B1, the IC50 of inhibition of rat MMP9 activity (cleavage of 5-FAM/QXL 520 FRET peptide, 37°C) worked out at 2.4 nM.
As to B3, the IC50 of inhibition of rat MMP9 activity (cleavage of 5-FAM/QXL 520 FRET peptide, 37°C) was 1.3 nM.
For the molecule B4, the IC50 of inhibition of rat MMP9 activity (cleavage of 5-FAM/QXL 520 FRET peptide, 37°C) is 10.8 nM.
With B5, the IC50 of inhibition of rat MMP9 activity (cleavage of 5-FAM/QXL 520 FRET peptide, 37°C) is 0.9 nM.
Consider B6, for which the IC50 of inhibition of rat MMP9 activity (cleavage of 5-FAM/QXL 520 FRET peptide, 37°C) came to 65 nM.
On to B7, for which the IC50 of inhibition of rat MMP9 activity (cleavage of 5-FAM/QXL 520 FRET peptide, 37°C) is 60 nM.
On to B8, for which the IC50 of inhibition of rat MMP9 activity (cleavage of 5-FAM/QXL 520 FRET peptide, 37°C) was 77 nM.
Turning to B9, the IC50 of inhibition of rat MMP9 activity (cleavage of 5-FAM/QXL 520 FRET peptide, 37°C) came out at 14.3 nM.
Turning to B10, the IC50 of inhibition of rat MMP9 activity (cleavage of 5-FAM/QXL 520 FRET peptide, 37°C) is 15.5 nM.
The same measure, in the same setting: then B11, with 50.8 nM; and B12, with 152 nM.
Regarding B13, the IC50 of inhibition of rat MMP9 activity (cleavage of 5-FAM/QXL 520 FRET peptide, 37°C) is 36 nM.

For another experiment, the target named is recombinant human MMP2 (pro‐MMP2 activated with APMA) (human).
recombinant human MMP2 (pro‐MMP2 activated with APMA) (human), sequence (P08253 30-660): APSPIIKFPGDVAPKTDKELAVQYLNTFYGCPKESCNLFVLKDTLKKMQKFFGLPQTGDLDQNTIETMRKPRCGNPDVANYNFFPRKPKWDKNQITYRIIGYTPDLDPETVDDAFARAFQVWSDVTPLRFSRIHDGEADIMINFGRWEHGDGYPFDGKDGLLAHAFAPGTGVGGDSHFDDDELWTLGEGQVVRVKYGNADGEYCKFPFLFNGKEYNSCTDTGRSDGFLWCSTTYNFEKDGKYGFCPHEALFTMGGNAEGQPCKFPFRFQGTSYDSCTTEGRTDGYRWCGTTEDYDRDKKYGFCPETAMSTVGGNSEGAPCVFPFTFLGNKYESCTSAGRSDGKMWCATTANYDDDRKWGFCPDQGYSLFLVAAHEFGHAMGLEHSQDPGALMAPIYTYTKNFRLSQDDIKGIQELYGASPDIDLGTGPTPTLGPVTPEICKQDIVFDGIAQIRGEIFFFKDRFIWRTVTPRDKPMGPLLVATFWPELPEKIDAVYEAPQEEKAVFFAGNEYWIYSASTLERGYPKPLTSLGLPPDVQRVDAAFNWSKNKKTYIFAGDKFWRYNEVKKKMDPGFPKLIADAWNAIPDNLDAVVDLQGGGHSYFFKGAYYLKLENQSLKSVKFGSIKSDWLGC
With B1, the IC50 of inhibition of human MMP2 activity (cleavage of 5-FAM/QXL 520 FRET peptide, 90 min, 37°C) came out at 5.8 nM.
With B2, the IC50 of inhibition of human MMP2 activity (cleavage of 5-FAM/QXL 520 FRET peptide, 90 min, 37°C) stood at 9.7 nM.
For the molecule B3, the IC50 of inhibition of human MMP2 activity (cleavage of 5-FAM/QXL 520 FRET peptide, 90 min, 37°C) is 9.8 nM.
Consider B4, for which the IC50 of inhibition of human MMP2 activity (cleavage of 5-FAM/QXL 520 FRET peptide, 90 min, 37°C) was 6 nM.
Same read-out and setting: then B5, with 0.6 nM; and B6, with 5.1 nM.
B7: the IC50 of inhibition of human MMP2 activity (cleavage of 5-FAM/QXL 520 FRET peptide, 90 min, 37°C) worked out at 0.4 nM.
Consider B8, for which the IC50 of inhibition of human MMP2 activity (cleavage of 5-FAM/QXL 520 FRET peptide, 90 min, 37°C) was found to be 2.7 nM.
For B9, the IC50 of inhibition of human MMP2 activity (cleavage of 5-FAM/QXL 520 FRET peptide, 90 min, 37°C) was 1 nM.
On the same count and under the same terms, then B10, with 0.9 nM; and B11, with 0.8 nM; and B12, with 1.6 nM.
Regarding B13, the IC50 of inhibition of human MMP2 activity (cleavage of 5-FAM/QXL 520 FRET peptide, 90 min, 37°C) was found to be 0.9 nM.

Another experiment addresses recombinant rat MMP2 (pro‐MMP2 activated with APMA) (rat).
Take B1: the IC50 of inhibition of rat MMP2 activity (cleavage of 5-FAM/QXL 520 FRET peptide, 90 min, 37°C) is 3.4 nM.
Same read-out and setting: then B3, with 1.7 nM; and B4, with 3.6 nM.
Same read-out and setting: then B5, with 1.4 nM; and B6, with 0.7 nM; and B7, with 0.1 nM.
For the molecule B8, the IC50 of inhibition of rat MMP2 activity (cleavage of 5-FAM/QXL 520 FRET peptide, 90 min, 37°C) is 1 nM.
In the case of B9, the IC50 of inhibition of rat MMP2 activity (cleavage of 5-FAM/QXL 520 FRET peptide, 90 min, 37°C) was 0.2 nM.
With B10, the IC50 of inhibition of rat MMP2 activity (cleavage of 5-FAM/QXL 520 FRET peptide, 90 min, 37°C) turned out to be 0.5 nM.
The same measure, in the same setting: then B11, with 0.2 nM; and B12, with 0.3 nM; and B13, with 0.9 nM.

(Values after publication PMC6234480.)
